# Results published in the supplement of paper PMC9170038.
# System: MS2 coat protein
# Experiment: apparent KD of MS2 coat protein; designed switch direction (-1 OFF switch, 1 ON switch): 1; higher = weaker reporter binding
# Summary of the method: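 The apparent KD reported per design is the median over clusters of curve fits to normalised cluster fluorescence. The RNA switches were transcribed on Illumina chips by stalled E. coli RNA polymerase. SNAP-549-labelled MS2 coat protein was titrated from 0.7 or 1.5 nM, doubling up to 3 µM, in Tris-HCl pH 7.5 buffer containing KCl, MgCl2, BSA, DTT, tRNA and Tween-20, with no input, 200 uM small-molecule ligand, or an oligonucleotide input.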
# [1] = input ligand: microRNA oligo, concentration not stated
# [2] = Eterna round: R95, input ligand: FMN 200 uM
# [3] = Eterna round: R95, input ligand: microRNA oligo, concentration not stated
# [4] = Eterna round: R95, input ligand: none
Sequence,apparent KD of MS2 coat protein (input ligand: FMN 200 uM) [µM],apparent KD of MS2 coat protein [1] [µM],apparent KD of MS2 coat protein (input ligand: none) [µM],apparent KD of MS2 coat protein [2] [µM],apparent KD of MS2 coat protein [3] [µM],apparent KD of MS2 coat protein [4] [µM]
"GUUACAUGAGGAUCACCCAUGUAUGUGUGGGAGUAAGUGUCUUAGGAUAUCUAUCAUUUAAUUAAAGAGAAGGAAGAUUGUUGU [JMF's solution 98] (Eterna round: R96, puzzle: Same State NG 3)",0.0869,0.0873,0.113,–,–,–
"AUAGUUGCCGAAGGAUAUGAUGAGGAUCACCCAUCAGAAGGUUGGCUAUUGGGUGGACAUGAGGAUCACCCGUGUUCUUUGGUA (Eterna round: R96, puzzle: Same State NG 1)",0.0503,0.0475,0.0821,–,–,–
"AUUAUGUAUGCAGGAUAUGAUUAACAUGAGGAUCACCCAUGUGGUGUUGUGAGUAAGGAGAGUGAUCAGAAGGGCAUUUUUUUU [JMF's solution 64] (Eterna round: R96, puzzle: Same State NG 2)",0.555,0.333,0.381,–,–,–
"UGGCUCAGACUAGGAUAUAUGCGAUCACAUGAGGAUCACCCAUGUCUCGAGCUUCGGCUCGAGGCAUAGAAGGAGUCUGAGCCA [SSNG2/4-D2] (Eterna round: R96, puzzle: Same State NG 2)",0.0144,0.0346,0.0565,–,–,–
"GGAGCCGGCCUAGGAUAUUUCAUAAUAAAACAUGAGGAUCACCCAUGUAGGCCAGAAGGCCUUGGGAAGAAGGAGGUCGGCUCC [Loop Effect - U26] (Eterna round: R96, puzzle: Same State NG 2)",0.0121,0.0302,0.047,–,–,–
AAAAUACAUGAGGAUCACCCAUGUAGAAACUACACAGGAUAUCGGACGGCUGUAGCCGAACGAGAAGGGUGAACCC [Uszadi] (puzzle: Same State 1),–,–,–,0.205,0.228,0.313
UUUAUACAUGAGGAUCACCCAUGUCAAUGUAGUCGAGGAUAUGGGCAGCUGUGAGGCGUACUAGAAGGCGAAGAGG [JL-ss1-3.09 ViennaUCT mod] (puzzle: Same State 1),–,–,–,0.103,0.378,0.579
"AGCCUGAGUCGAGGAUAUUAUGGAUCCUUUAAUACAUGAGGAUCACCCAUGUAAUUAAUUAUACAUGAGAAGGCGACUCAGGCA [SSNG2/11-A1] (Eterna round: R96, puzzle: Same State NG 2)",0.0109,0.0304,0.129,–,–,–
GGAGCCGGCACUGAGGAUAUUCAUAAUAAAACAUGAGGAUCACCCAUGUAGGCCAGAAGGCCUUGGGAGAAGGCAGGUCGGCUCA [Mat - Same State 2 - Mod of UCT - D66] (puzzle: Same State 2),–,–,–,0.0183,0.153,0.217
"UAUUGUUCCUGAGGAUAUCAGUUGUUUGCAUUAUGAGAAGGCAGUACAUGAGGAUCACCCAUGUUGGGAUUUGAUAGAAUGAUA [JR_SSNG1_Sub007] (Eterna round: R96, puzzle: Same State NG 1)",–,0.133,–,–,–,–
"GCUUGCCGCACAGGAUAUGGGUGCCUGUACAUGAGGAUCACCCAUGUUAAGGGACGGAUUACGAACCAGAAGGGUGAGGCGGGC [Lereatle] (Eterna round: R96, puzzle: Same State NG 2)",0.0594,0.119,0.473,–,–,–
"UUAAUUUACUGAGGAUAUCGUGUCGACUGAGUUGACAUGAGGAUCACCCAUGUGAGAAGUGGUAUCGAGAAGGCAGUUUUCUUA [JR_SSNG2_Sub025] (Eterna round: R96, puzzle: Same State NG 2)",0.0178,0.082,0.102,–,–,–
"UCUUGGUUUUUGCUCGUUUUUUGUGUUGAACAUGAGGAUCACCCAUGUAUUGUACAGUCCAAUUUGAUAAUGGUCCG [JMF 54] (Eterna round: R96, puzzle: Sensor for hsa-mir-208a)",0.0502,0.0281,0.0551,–,–,–
UCUUGGUUUUUGCUCGUUUUUUGUGUUGAACAUGAGGAUCACCCAUGUAUUGUACGGUCCGGUUUAAUAGUGGUCCG [JMF 14] (puzzle: Sensor for hsa-mir-208a),–,–,–,0.0278,0.0154,0.0283
"AGCUAUUAAUCAGGAUAUAGUGACAUGAGGAUCACCCAUGUAUUGAUGAUUAAAUGUGGUCACCGCUAGAAGGGAUUACUAACA [SameState NG2 #47] (Eterna round: R96, puzzle: Same State NG 2)",0.0256,0.0233,0.0301,–,–,–
